Measurements reported in paper PMC8989531 (Nucleic Acids Research, 2022).

T1: RecD2-His (Bacillus subtilis RecD2 helicase with C-terminal His tag) (B. subtilis, UniProt O34481 1-798)
T1 sequence (looked up): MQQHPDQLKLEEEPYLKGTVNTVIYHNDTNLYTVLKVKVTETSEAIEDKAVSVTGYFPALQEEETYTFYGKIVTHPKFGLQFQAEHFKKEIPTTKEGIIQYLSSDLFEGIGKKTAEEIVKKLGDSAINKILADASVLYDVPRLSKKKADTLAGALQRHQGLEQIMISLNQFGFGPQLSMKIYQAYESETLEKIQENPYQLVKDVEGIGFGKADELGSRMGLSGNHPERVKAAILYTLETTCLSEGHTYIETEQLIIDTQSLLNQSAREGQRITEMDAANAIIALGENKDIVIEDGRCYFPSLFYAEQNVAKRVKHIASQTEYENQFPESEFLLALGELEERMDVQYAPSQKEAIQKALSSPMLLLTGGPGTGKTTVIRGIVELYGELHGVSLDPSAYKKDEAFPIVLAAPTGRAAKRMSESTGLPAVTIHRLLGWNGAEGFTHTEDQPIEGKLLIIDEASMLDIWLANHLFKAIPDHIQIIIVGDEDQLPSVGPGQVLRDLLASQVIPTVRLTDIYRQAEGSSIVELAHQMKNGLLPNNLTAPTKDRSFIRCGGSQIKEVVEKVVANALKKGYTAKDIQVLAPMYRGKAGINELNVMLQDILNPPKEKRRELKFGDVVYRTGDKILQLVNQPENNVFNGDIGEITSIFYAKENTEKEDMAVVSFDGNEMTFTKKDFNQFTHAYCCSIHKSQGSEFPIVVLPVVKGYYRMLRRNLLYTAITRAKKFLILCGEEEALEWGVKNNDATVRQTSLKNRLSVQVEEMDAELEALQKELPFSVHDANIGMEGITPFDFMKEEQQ


Target: T1, RecD2-His (Bacillus subtilis RecD2 …)
Experiment: far-Western, overlay or dot blot

Binder	binding result
SsbA (Bacillus subtilis single-stranded DNA binding protein) (natural protein, B. subtilis, UniProt P37455 1-172, looked up) MLNRVVLVGRLTKDPELRYTPNGAAVATFTLAVNRTFTNQSGEREADFINCVTWRRQAENVANFLKKGSLAGVDGRLQTRNYENQQGQRVFVTEVQAESVQFLEPKNGGGSGSGGYNEGNSGGGQYFGGGQNDNPFGGNQNNQRRNQGNSFNDDPFANDGKPIDISDDDLPF	binds
RecA (Bacillus subtilis recombinase) (natural protein, B. subtilis, UniProt P16971 1-348, looked up) MSDRQAALDMALKQIEKQFGKGSIMKLGEKTDTRISTVPSGSLALDTALGIGGYPRGRIIEVYGPESSGKTTVALHAIAEVQQQGGQAAFIDAEHALDPVYAQKLGVNIEELLLSQPDTGEQALEIAEALVRSGAVDIVVVDSVAALVPKAEIEGDMGDSHVGLQARLMSQALRKLSGAINKSKTIAIFINQIREKVGVMFGNPETTPGGRALKFYSSVRLEVRRAEQLKQGNDVMGNKTKIKVVKNKVAPPFRTAEVDIMYGEGISKEGEIIDLGTELDIVQKSGSWYSYEEERLGQGRENAKQFLKENKDIMLMIQEQIREHYGLDNNGVVQQQAEETQEELEFEE	binds
